According to the supplement of paper PMC11780869:

Tested on: Bacillus subtilis
Experiment: cleaved RNA product abundance (RNA/gDNA barcode ratio) relative to median wild-type variant (ratio to wild type); higher = more accumulation of the downstream cleavage product
Conditions: cleavage site: cggR-gapA (positions -7 to +36 mutated)
Method: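 MPRA in B. subtilis. Mutagenized RNase Y cleavage-site regions (9% mutation rate) were inserted into a barcoded reporter mRNA (truncated aprE or tetM). Cells were grown in LB at 37°C to OD600 0.3. The cleaved RNA isoform was gel-purified and its barcodes counted; the RNA:gDNA barcode ratio was normalised to the median wild-type variant, and the median over barcodes is reported per variant. The printed sequence is the variable window only; the reporter flanks are not printed.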

[1] = experiment (reporter, strain, medium): exp 4a: truncated aprE reporter, strain BJT201 with 2% xylose (RNase J1 expressed)
[2] = experiment (reporter, strain, medium): exp 2b: truncated aprE reporter, strain BJT200

Sequence	cleaved RNA product abundance [1]	cleaved RNA product abundance [2]
ACAGACGAAGGAGCCGCAAAGAACTTATTAAGGGATGAATAATCCGTCAATATAAATATCTCTCACTTATTTAAA	0.155	
ACAGACGAAGGAGCCGCAAAGAACTTATTAAGGGATGAATAATCCTTCAATATAAATATCTCTCACTTATTTAAA	0.342	
ACAGACGAAGGAGCCGCAAAGAACTTATTAAGGGATGAATAATCTCTCAATATAAATATCTCTCACTTATTTAAA	0.418	
ACAGACGAAGGAGCCGCAAAGAACTTATTAAGGGATGAATAATTCATCAATATAAATATCTCTCACTTATTTAAA	0.372	
ACAGACGAAGGAGCCGCAAAGAACTTATTAAGGGATGAATAATTCCTCAATATAAATATCTCTCACTTATTTAAA	0.32	0.315
ACAGACGAAGGAGCCGCAAAGAACTTATTAAGGGATGAATCATCCCTCAATATAAATATCTCTCACTTATTTAAA	0.36	
ACAGACGAAGGAGCCGCAAAGAACTTATTAAGGGATGAATGATCCCTCAATATAAATATCTCTCACTTATTTAAA	0.282	
ACAGACGAAGGAGCCGCAAAGAACTTATTAAGGGATGAATTATCCCACAATATAAATATCTCTCACTTATTTAAA	0.17	
ACAGACGAAGGAGCCGCAAAGAACTTATTAAGGGATGAATTATCCCTCAATATAAATATCTCTCACTTATTTAAA	0.31	0.284
ACAGACGAAGGAGCCGCAAAGAACTTATTAAGGGATGACTAATCCCTCAATATAAATATCTCTCACTTATTTAAA	0.382	
ACAGACGAAGGAGCCGCAAAGAACTTATTAAGGGATGAGTAATCCCTCAATATAAATATCTCTCACTTATTTAAA	0.421	
ACAGACGAAGGAGCCGCAAAGAACTTATTAAGGGATGTATAATCCCTCAATATAAATATCTCTCACTTATTTAAA	0.637	
ACAGACGAAGGAGCCGCAAAGAACTTATTAAGGGATTAATAATCCCTCAATATAAATATCTCTCACTTATTTAAA	0.621	
ACAGACGAAGGAGCCGCAAAGAACTTATTAAGGGGTGAATAATCCCTCAATATAAATATCTCTCACTTATTTAAA	0.411	
ACAGACGAAGGAGCCGCAAAGAACTTATTAAGGGTTGAATAATCCCTCAATATAAATATCTCTCACTTATTTAAA	0.232	0.218
ACAGACGAAGGAGCCGCAAAGAACTTATTAAGGTATGAATAATCCCTCAATATAAATATCTCTCACTTATTTAAA	0.108	0.0959
ACAGACGAAGGAGCCGCAAAGAACTTATTAAGTGATGAATAATCCCTCAATATAAATATCTCTCACTTATTTAAA	0.0735	
ACAGACGAAGGAGCCGCAAAGAACTTATTAATGGATGAATAATCCCTCAATATAAATATCTCTCACTTATTTAAA	0.142	0.102
ACAGACGAAGGAGCCGCAAAGAACTTATTACGGGATGAATAATCCCTCAATATAAATATCTCTCACTTATTTAAA	0.248	
ACAGACGAAGGAGCCGCAAAGAACTTATTATGGGATGAATAATCCCTCAATATAAATATCTCTCACTTATTTAAA	0.233	
ACAGACGAAGGAGCCGCAAAGAACTTATTCAGGGATGAATAATCCCTCAATATAAATATCTCTCACTTATTTAAA	0.525	
ACAGACGAAGGAGCCGCAAAGAACTTATTTAGGGATGAATAATCCCTCAATATAAATATCTCTCACTTATTTAAA	0.321	0.442
ACAGACGAAGGAGCCGCAAAGAACTTTTTAAGGGATGAATAATCCCTCAATATAAATATCTCTCACTTATTTAAA		0.204
ACAGACGAAGGAGCCGCAAAGAAGAAATTAAGGGATGAATAATCCCTCAATATAAATATCTCTCACTTATTTAAA	0.185	0.171
ACAGACGAAGGAGCCGCAAAGAAGAAATTAAGGGATGAATAATTCCTCAATATAAATATCTCTCACTTATTTAAA	0.129	
ACAGACGAAGGAGCCGCAAAGAAGATAATAAGGGATGAATAATCCCTCAATATAAATATCTCTCACTTATTTAAA	0.227	
